Measured values taken from US20220324971A1 (AKESO BIOPHARMA, published 2022).
Values belong to the binder of their own block, whether it stands above or below them.

Tests used:
human CD47 IgV TEV-His [1] = target: T1, human CD47 IgV TEV-His (human, UniProt Q08722 19-141); assay: Fortebio BLI, antibody amine-coupled to AR2G sensor, antigen 3.125-100 nM
T1 construct: range 19-141; Recombinant fusion protein synthesized by Akeso; residue numbers count on NP_942088.1; not shown: his tag

[2] = target: T2, CD47 on the cell membrane surface of human cells (normal human RBCs, Raji, LOVO) (human, UniProt Q08722 19-323); assay: flow cytometry on human RBCs
T2 construct: whole, on cells; also called CD47 on the cell membrane surface of normal human RBCs; CD47 on the cell membrane surface of Raji cells
Protocol: Fresh blood was mixed well with blood buffer (blood dilution ratio of 1:3 after concentration). […] The tubes were each centrifuged at 1550 rpm for 30 min after balancing. The PBMCs in the middle buffy coat layer were pipetted. The blood buffer was added in a volume ratio of cells to blood buffer of 1:4. The resulting mixture was well mixed and centrifuged at 950 rpm for 15 min, and the supernatant was discarded. 20 mL of the blood buffer was added to resuspend PBMCs. The resulting suspension was centrifuged, and the supernatant was discarded. Centrifugation was performed, followed by two washings. […] Centrifugation was performed and the supernatant was discarded. […] 500 μL of 1% PBSA was added to each tube, followed by centrifugation at 5600 rpm for 5 min. The supernatant was discarded. 100 μL of the antibody with a corresponding concentration was added (final concentrations: 300, 100, 10, 1, 0.1, 0.01, 0.001 nM) to each tube, and a Blank (PBSA+ cells) and an isotype control were designed, followed by incubation on ice for 1 h. […] 200 μL of 1% washing buffer was added to each tube to resuspend the cells, and fluorescence signals were detected with FITC channel on a flow cytometer. The results were analyzed using Flowing software, and curve fittings were performed separately using MFI and sample concentration on GraphPad prism 5 to calculate EC50.

[3] = target: T2, CD47 on the cell membrane surface of …; assay: flow cytometry on Raji cells
[4] = target: T2, CD47 on the cell membrane surface of …; assay: flow cytometry on LOVO cells
Protocol: The cell pellets were resuspended in 500 μL of 1% PBSA and counted, and the viability was determined. The cells were transferred to 1.5 mL tubes according to 3.0×10⁵ cells/500 μL/tube, and centrifuged at 5600 rpm for 5 min, and the supernatant was discarded. […] Then 500 μL of 1% PBSA was added, followed by centrifugation at 5600 rpm for 5 min, and the supernatant was discarded. 100 μL of FITC goat anti-human IgG (1:500) was added to each tube, and the mixtures were well mixed and incubated on ice for 30 min in the dark. 500 μL of 1% PBSA was added, followed by centrifugation at 5600 rpm for 5 min, and the supernatant was discarded. 200 μL of 1% PBSA was added to each tube to resuspend the cells, and the suspensions were transferred to flow cytometry tubes and detected by a flow cytometer BD FACSCalibur. The results were analyzed using Flowing software, and curve fittings were performed separately using MFI and sample concentration on GraphPad prism 5 to calculate EC50.

[5] = target: T2, CD47 on the cell membrane surface of …; assay: flow cytometry competition vs SIRPα-ECD-mFc on LOVO cells
[6] = target: T2, CD47 on the cell membrane surface of …; assay: flow cytometry competition vs SIRPα-ECD-mFc 20 nM on Raji cells
Protocol: Raji cells in the log phase were routinely collected, centrifuged and washed. The cell pellets were resuspended in 1% PBSA and counted, and the viability was determined. The cell concentration was adjusted with 1% PBSA into a suitable range, and the cells were transferred in groups into 1.5 mL tubes at 500 μL per tube, for a total of 0.3 million cells. The cells were centrifuged at 5600 rpm for 5 min, and the supernatant was discarded. The antibody serially diluted was added (final concentrations in descending order: 1, 0.3, 0.1, 0.01, 0.001, 0.0001 nM), and a blank control (100 μL of 1% PBSA+ cells) and an isotype control (human hIgG) were set up, followed by incubation on ice for 30 min. […] 1% PBSA was added, followed by centrifugation at 5600 rpm for 5 min, and the supernatant was discarded. 100 μL of FITC goat anti-mouse IgG (1:500 dilution) was added to each tube, followed by incubation on ice for 40 min in the dark. 500 μL of 1% PBSA was added, followed by centrifugation at 5600 rpm for 5 min, and the supernatant was discarded. 200 μL of 1% PBSA was added to resuspend the cell pellets. Fluorescence signals were detected with FITC channel on a flow cytometer.

human CD47 IgV TEV-His [7] = target: T1, human CD47 IgV TEV-His; assay: Biacore SPR, CD47 IgV-TEV-His amine-coupled to chip, antibody 0.78-12.5 nM, 1:1 model
Protocol: The buffer solution was PBST. […] The antibody and human CD47 were subjected to dissociation for 300 s. The chip was regenerated with 3 M MgCl₂ for 30 s at a flow rate of 30 μL/min. The data were analyzed by 1:1 model fitting to obtain affinity constants. Data were acquired using Biacore Control 2.0 software and analyzed using Biacore T200 Evaluation 2.0 software.

human CD47 IgV TEV-His [8] = target: T1, human CD47 IgV TEV-His; assay: competitive ELISA vs SIRPα ECD-hFc-Biotin 0.1 ug/mL on coated CD47 IgV TEV-His (blocking EC50)
Protocol: (§1) Experimental procedures: A microplate was coated with 2 μg/mL human CD47 IgV TEV-His at 50 μL per well and incubated at 4° C. for 16 h. The microplate was washed once and tapped dry, blocked with 1% BSA (in PBS) at 300 μL per well, incubated at 37° C. for 2 h, and washed three times and tapped dry. […] Two duplicate wells were set for the above concentrations, with a final volume of 50 μL per well, and the plate was incubated for 10 min. […] The microplate was washed three times and tapped dry. 50 μL of SA-HRP (KPL, 14-30-00) working solution was added to each well, and the microplate was incubated at 37° C. for 30 min. The microplate was washed four times and tapped dry. 50 μL of TMB chromogenic solution was added to each well for color developing for 5 min at room temperature in the dark, and then the color development was terminated by adding 50 μL of stop solution to each well. Then the microplate was put into a microplate reader immediately, and the OD value of each well in the microplate was read at 450 nm. The data were analyzed and processed by SoftMax Pro 6.2.1.

[9] = target: T2, CD47 on the cell membrane surface of …; assay: flow cytometry on Raji cells; remark: listed apart in the source
Protocol: Raji cells in the log phase were collected, centrifuged, and washed. The cell pellets were resuspended in 1% PBSA and counted, and the viability was determined. The cells were transferred to 1.5 mL tubes according to 3.0×10⁵ cells/500 μL/tube, and centrifuged at 5600 rpm for 5 min, and the supernatant was discarded. 100 μL of the corresponding antibody serially diluted was added to each tube according to the experimental design, and a blank group (PBSA+ cells) and an isotype control (hIgG) group were designed, followed by incubation on ice for 1 h. Then 1% PBSA was added, followed by centrifugation at 5600 rpm for 5 min, and the supernatant was discarded. 100 μL of FITC goat anti-human IgG (1:500) was added to each tube, and the mixtures were well mixed and incubated on ice for 30 min in the dark. 500 μL of 1% PBSA was added, followed by centrifugation at 5600 rpm for 5 min, and the supernatant was discarded. 1% PBSA was added to each tube to resuspend the cells, and fluorescence signals were detected with FITC channel on a flow cytometer. Curve fittings were performed separately using MFI and sample concentration to calculate EC50.

human CD47 IgV TEV-His [10] = target: T1, human CD47 IgV TEV-His; assay: indirect ELISA, coated CD47 IgV TEV-His 2 ug/mL
Protocol: Experimental procedures: A microplate was coated with 2 μg/mL human CD47 IgV TEV-His and incubated at 4° C. for 12 h. The antigen-coated microplate was rinsed 3 times with PBS, and then blocked with 1% BSA in PBS for 2 h. The microplate was rinsed 3 times with PBS. The antibody serially diluted with PBST solution was added into the wells of the microplate, the dilution gradients for the antibody detailed in Table 2. The microplate containing the test antibody was incubated at 37° C. for 30 min, and then washed 3 times with PBST. […] The microplate was washed 3 times with PBST. […] Then the microplate was put into a microplate reader immediately, and the OD value of each well in the microplate was read at 450 nm. The data were analyzed by SoftMax Pro 6.2.1.

[11] = target: T2, CD47 on the cell membrane surface of …; assay: flow cytometry competition vs SIRPα-mFc 20 nM on LOVO cells
Protocol: The cell pellets were resuspended in 1% PBSA and counted, and the viability was determined. The cell concentration was adjusted with 1% PBSA into a suitable range, and the cells were transferred in groups into 1.5 mL tubes at 500 μL per tube, for a total of 0.3 million cells. The cells were centrifuged at 5600 rpm for 5 min, and the supernatant was discarded. The antibody serially diluted was added (final concentrations in descending order: 300, 100, 10, 1, 0.3, 0.1, 0.01, 0.001, 0.0001 nM), and a blank control (100 μL of 1% PBSA+ cells) and an isotype control (human hIgG) were set up, followed by incubation on ice for 30 min. […] 1% PBSA was added, followed by centrifugation at 5600 rpm for 5 min, and the supernatant was discarded. 100 μL of FITC goat anti-mouse IgG (1:500 dilution) was added to each tube, followed by incubation on ice for 40 min in the dark. 1% PBSA was added, followed by centrifugation at 5600 rpm for 5 min, and the supernatant was discarded. 200 μL of 1% PBSA was added to resuspend the cell pellets, and the suspensions were transferred to flow cytometry tubes. Fluorescence signals were detected with FITC channel on a flow cytometer. Curve fittings were performed separately using MFI and sample concentration to calculate EC50.

human CD47 IgV TEV-His [12] = target: T1, human CD47 IgV TEV-His; assay: competitive ELISA vs SIRPα ECD-hFc-Biotin 0.1 ug/mL on coated CD47 IgV TEV-His (blocking EC50); remark: listed apart in the source
Protocol: as §1

Kd (human CD47 IgV TEV-His [1]): 0.652 nM
koff (human CD47 IgV TEV-His [1]): 0.000256 s⁻¹
kon (human CD47 IgV TEV-His [1]): 393000 M⁻¹ s⁻¹
B1: murine antibody 6F7 (antibody, V domains shown)
VH: QVQLQQPGAELVRPGASVKLSCKASGYTFTSYWMNWVKQRPGQGLEWIGMIDPSDSETHNNQMFKDKATLTVDKSSNTAYMHLSSLTSEDSAVYHCARLYRWYFDVWGAGTTVTVSS
VL: NIVMTQSPKSMSMSLGERVTLSCKASEIVGTYVSWFQQKPHQSPKLLIYGASNRYTGVPDRFTGSGSATDFTLTISNVQAEDLADYHCGQSYNFPYTFGGGTKLEIK
notes: Murine hybridoma antibody purified on protein A; also called monoclonal antibody secreted by hybridoma cell line LT012 (CD47-6F7)

EC50 [2]: 0.6 nM
EC50 [3]: 0.32 nM
EC50 [4]: 0.02 nM
EC50 [5]: 0.1 nM
EC50 [6]: 0.017 nM
Kd (human CD47 IgV TEV-His [7]): 0.152 nM
EC50 (human CD47 IgV TEV-His [8]): 0.194 nM
B2: 6F7 H1L1(hG4) (antibody, human IgG4, kappa)
heavy: not shown
light: NIVMTQSPATMSMSPGERVTLSCRASEIVGTYVSWFQQKPGQAPRLLIYGASNRYTGVPARFSGSGSGTDFTLTISSVQPEDLADYHCGQSYNFPYTFGGGTKLEIKRTVAAPSVFIFPPSDEQLKSGTASVVCLLNNFYPREAKVQWKVDNALQSGNSQESVTEQDSKDSTYSLSSTLTLSKADYEKHKVYACEVTHQGLSSPVTKSFNRGEC
notes: Humanized 6F7

EC50 [9]: 0.013 nM
EC50 (human CD47 IgV TEV-His [10]): 0.037 nM
EC50 [11]: 0.16 nM
EC50 (human CD47 IgV TEV-His [12]): 0.274 nM
B3: 6F7 H1L1(G1M) (antibody, human IgG1, kappa, L234A L235A)
heavy: not shown
light: B2 light
notes: Humanized 6F7; also called 6F7 H1L1(hG1DM)
